38 variants from the RNAGym collection of RNA variant scans (doi:10.1073/pnas.2313332121) can be followed below.

Fewer inactive variants are shown than the library holds.

B1: TPR 5TU (parent)
chain: GGAUCUUCUCGAUCUAACAAAAAAGACAAAUCUGCCACAAAGCUUGAGAGCAUCUUCGGAUGCAGAGGCGGCAGCCUUCGGUGGCGCGAUAGCGCCAACGUUCUCAACUAUGACACGCAAAACGCGUGCUCCGUUGAAUGGAGUUUAUCAUG

The series covers variants of B1. Nature of the series: polymerase ribozyme fitness, log enrichment relative to wild type (log ratio); higher = more active; in vitro selection for triplet polymerase activity. The method in brief: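 Mutant libraries of both subunits of a heterodimeric triplet polymerase ribozyme were PCR-built, transcribed, and selected once in triplicate, with frozen incubation at −7 °C and capture of gel-excised extended constructs on streptavidin beads before RT-PCR. Illumina sequencing of input and output libraries was filtered to genotypes with ≥10 input reads and ≥1 read per output. Fitness is the logarithm of genotype enrichment over wild-type enrichment, using inverse-variance-weighted replicate averages. The logarithm is base 2.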
Turning to GGAUAUUCUCGAUCUAACAAAACAGACAAAUCUGCCACAAAGCUUGAGAGCAUCUUCGGAUGCAGAGGCGGCAGCCUUCGGUGGUGCAAUAGCGCCAACGUUCUUAACUAUGACACGCAGAACGCGUGCUCCGUUGAAUGGAGUUUAUCAUG, the “polymerase ribozyme fitness (log ratio)” value is at most -4.2. For GGAUAUUCUCGAUCUAACAAAUAUGAGAAAUCUGCCACCAAGCUUGAGAGCAUCUUUGGUUGCAGAGGCGGCAGCCUUCGGUGGGGCGAUAGCGCCAACGUUCUCAACUAUGACACGCAAAACGCGUGCUCCGUUGAAUGGAGUUUAUCAUG the value was at most -4.2. On to GGAUAUUCUCGAUCUAACAUAAAAGACAAAUCUGCCACAAAGCUUGUGAGCAUCUUCGGAUGCAGAGGCGGCACCCUUCGGUGGCGCGAUAGCGCCAACGUUCUCAACUAUGACACACAAAACGCUUGCUCCGUUGAAUGGAGUUUAUCAUG, for which the “polymerase ribozyme fitness (log ratio)” value was at most -4.2. As to GGAUAUUCUCGAUCUAACAAAAAAGUCAAAUCUGCCACAAAGCUUGAGAAUAUCUUCGGAUGCAGAGGCGGCAGCCUUCGGUGGCGCGAUAGCGCCAACGUUCUCCACUAUGACACGCAAAACGCGUGCUCCGUUGAAGGGAGUUUAUCAUG, the “polymerase ribozyme fitness (log ratio)” value was at most -4.2. The same measure for GGAUAUUCUCGAUCUAACAAAAAAGACAAAUCUGCCACAAAGCUUGAGAGCAUCUUUGGAUGCAGAGGCGGCAGCCUUCGGUGGCACGAUAGCGCCAACGUUCUCAACUAUGACACGCAGAACGCGUGCUCCGUUGAAUGCAGUUUAUCAUG: -2.54; for GGAUAUUCUCGAUCUAACAAAAAAGACAAAUCUGCCACAAAGCUUGAGAGCAUCUUUGGAUGCAGAGGCGGCAGCCUUCGGUGGCGCGAUAGCGUCAACGUUGUCAACUAUGACACGCAAAACGCGUGCUCCGUUGAAUGGAGUUUAUCAUG: -2.24.

Turning to GGAUAUUCUCGAUCUAACAAAAAAGACAAAUCUGCCACAAAGCUUGAGAGCAUCUUCGGAUGCAGAGGCGGCAGCCUUCGGUGGCGCGAUUGCGCCAACGUUCUCAACUAUGACACGCAAAACGCGUGCUCCGUUGAAUGGAGUUUAUCAUG, the “polymerase ribozyme fitness (log ratio)” value was -4.1. For GGAUAUUCUCGAUCUAACAAAAAAGACAAAUCUGCCACAAAGCUUGAGAGCUUCUUCGGAUGCAGAGGCGGCAGCCUUCGGUAGCGCGAUAGCGCCAACGUUCUCAACUAUGACACGCAAAACGCGUGCUCCGUUGAAUGGAGUUUAUCAUG the value was -3.03. For GGAUAUUCUCGAUCUAACAAAAAAGACAAAUCUGCCACAAAGCUUGAGAGCAUCUUCGGAUGCAGAGGCGGCAGUCUUCGGUGGCGUGAUAGCGCCAACGUUCUCAACUAUGACACGCAAAACGCGUGCUCCGUUGAAUGGAGUUUAUCAUG the value was 0.223; for GGAUAUUCUCGAUCUAACAAAAAAGACAAAUCUGCCACAAAGCUUGAGAGCAUUUUCGGAUGCAGAGGCGGCAGCCUUCGGUGGCGCGAUAGCGCCAACGUUCUCAACUAUGACACGCAAAACGCGUGCUCCGUUGAAUGGAGUUUAUCAUG, 0.00554.

On to GGAUAUUCUCGAUCUAACAAAAAAGACAAAUCUGCGACAAAGCUUGAGCGCAUCUUCGGAAGCAGAGGCGGCAGCCUUCGGUGACGCGAUAGCGCCAACGUUCUCAACUAUGACACGCAAAACGCGUGCUCCGUUGAAUGGAGUUUAUCAUG, for which the “polymerase ribozyme fitness (log ratio)” value is at most -4.2. For GGAUAUUCUCGAUCUAACAAAAAAGACAAAUCUGCCACAAAGCUUGAGAGCAUCUUCGGAUGCAGAGGCGGCAGCCUUCGGUGGCGCGAUAGAGCCAACGUUCUCAACUAUGACACGCAAAACGCGUGCUCCGUUGAAUGGAGUUUAUCAUG the value was -1.25.

In the case of GGAUAUUCUCGAUUUAACAAAAAAGACAAAUAAGCCACAAAGCUUGUGAGCAUCUUCGGAUGCAGAGGCGGCAGCCUUCGGGGGCGCGAUAUCGCCAACGUUCUCAACUAUGACACGCAAAACGCCUGCUCCGUGGAAUGGAGUUUAUCAUG, the “polymerase ribozyme fitness (log ratio)” value is at most -4.2. With GGAUAUUCUCGAUGUAACAAAAAAGACAAAUCUGCCACAAAGCUUGAGAGCAUCUUCGGAUGCAGAGGCGGCAGCCUUCGGUGGCGCGAUAGCGCCAACGUUCUCAACUAUGACACGCAAAACGCGUGCUCCGUUGAAUGGAGUUUAUCAUG, the “polymerase ribozyme fitness (log ratio)” value was -0.996. Regarding GGAUAUUCUCGAUCUAACAAAAAAGACAAAUCUGCCACAAAGCUUGAGAGCAUCUUCGGAUGCAGAGGCGGCAGCCUUCGGUGGAGCGAUAGCGCCAACGUUCUCAACUAUGACACGCAAAACGCGUGCUCCGUUGAAUGGAGUUUAUCAUG, the “polymerase ribozyme fitness (log ratio)” value is -1.31. For the variant GGAUAUUCUCGAUCUAACAAAAAAGACAAUUCUGCCACAAAGCUUGAGAGCAUCUUCGGAUGCAGAGGCGGCAGCCAUCGGUGGCGCGAUAUCGCCAACGUUCUCAACUAUGACACGCAAAACGCGUGCUCCGUUGAAUGGAGUUUAUCAUG, the “polymerase ribozyme fitness (log ratio)” value was at most -4.2. For GGAUAUUCUCGAUCUAACAAUAAAGACAAGUCUGCCACUAAGCUUGAGAGCAUCUUCGGAUGCAGAGACGGCAGCCUUCGGUGGCGCGAUAGCGCCAACGUUCUCAACUAUGACACGCAAAACGCGUGCUCCGUUGAAUGGAGUUUAUAAUG the value was at most -4.2. The same measure for GGAUAUUCUCGAUCUAACAAAAAAGACAAAUCUGCCACAAAGCUUGAGAGCAUCUUCGGAUGCGGGGGCGGCAGCCUUCGGUGGCGCGAUAGCGCCAACGUUCUCAACUAUGACACGCAAAACGCGUGCUCCGGUGAAUGGAGUUUAUCAUG: at most -4.2; for GGAUAUUCUCGAUCUAACAAAAAUGACAAAUCUGCUACAAAGCUUGAGAGCAUCUUCGGAUGCAGAGGCGGCAGCCUUCGGUGGCAAGAGAGAGCCAACGUUCUCAACUAUGACACGCAAAACGCGUGCUCCGUUGAAUGGAGUUUAUCAUG: at most -4.2.

Consider GGAUAUUCUCGAUCUAACAAACAAGACAAAUCUGCCAAAAAGCUUGAGAGCAUCUUCGGAUGCAGAGGCGACAGCCUUCGGUGGCGCGCUAGCGCCAACGUUCUCAACUAUGACACGCAAAACGCGUGCUCCGUUGAAUGGAGUUUAUCAUG, for which the “polymerase ribozyme fitness (log ratio)” value is at most -4.2.

As to GGAUAUUCUCGAUCUAACAAAAAAGACAAAUCUGCCACAAAGCUUGAGAGCAUCUUCGGAUGCAGAGGCGGCAGUCUUCGGUGGCGCGACGGCGCCAACGUUCUCAACUAUGACACGCAAAACGCGUGCUCCGUUGAAUGGAGUUUAUCGUG, the “polymerase ribozyme fitness (log ratio)” value was at most -4.2.

Consider GGAUAUUCUCGAUCUAACAAAAAAGACAACUCUGCCACAAAGCUUGAGAGCAUCUUCGGAUGCAGAGGCGGCAGCCUUCGGGGGCGCGAUAGCGCCAACGUCCUCAACUAUGACACGCAAAACGCGUGCUUCGUUGAAUGGAGUUUAUCAUG, for which the “polymerase ribozyme fitness (log ratio)” value was at most -4.2.

As for GGAUAUUCUCGAUCUAACAAAAAAGACAAAUCUGACAUAAAGCUUGAGAGCAUCUUCGGAUGCAGAGGCGGCAUCCUUCGGUGGCGAGAUAGCGCCAACGUUCUCAACUAUGACACGCAAAACGCGUGCUCCGUUGAAUGGAGUUUAACAUG, the “polymerase ribozyme fitness (log ratio)” value was at most -4.2. For GGAUAUUCUCGAUCUAACAAAAAAGACAAAUCUGCCACAAAGCUUGAGAGCAUCUUAGGAUGCAGAGGCGGCAGCUUUCGAUGGCGCGAUACCGCCAACGUUCUCAACUAUGACACGCAAAACGCGUGCUCUGUUGAAUGGAGUUUAUCAUG, the “polymerase ribozyme fitness (log ratio)” value is -2.21. Turning to GGAUAUUCUCGAUCUAACAAAAAAGACAAAUCUGCCACAAAGCUUGAGAGCAUUUUCGGAUGCAGAGGCGGCAGGCUUCCGAGGCGUGAUAGCGCCAAGGUUCUCAACUAUGACACGCAAAACGCGUGCUCCGUUGAAUGGAGUUUAUCAUG, the “polymerase ribozyme fitness (log ratio)” value was at most -4.2. Turning to GGAUAUUCUCGAUGUAACAAAAAAGACAAAUCUGCCACAAAGCUUGAGAGCAUCUUCGAAUGCAGAGGCGGCAGCCUUCGGUGGAGCGAUAGCGCCAACGUUCUCAACUAUGACACGGAAAACGCGUGCUCCGUUGAAAGGAGUUUAUCAUG, the “polymerase ribozyme fitness (log ratio)” value is at most -4.2. The same measure for GGAUAUUCUCGAUCUAACAAAAAAGACAUAUCUGCCACAAAGCUUGAGAGCCUCUUCGGAUGCAGAGGCGGCAACCUUCGGUGGCGCGAUAGCGCCGACGUUCUCAACUAUGACACGCAAAACGCGUGCUCCGUUGAAUGGAGUUUAUCAUG: at most -4.2; for GGAUAUUCUGGAUCUAACAAAAAAGACAAAUCUGCCACAAAGCUUGAGAGCAUCUUCGGAUGCAGAGGCGGCAGCCUUCGGUGGAGCGAUAGCGCCAACGUUCUCAACUAUGACACGGAAAACGCGUGCUCCGUUGAAUGGAGUUUAUCAUG: -3.84; for GGAUAUUCUCGAUCUAACAAAAAUGACAAAUCUGCCACACAGCUUGAGAGCCUCUUCGGAUGCAGAGGCGGCAGCCUUCGGUGGCGCGAUAGCGCCAACGUUCUCAACUAUGACACGCAAAACGCGUGCUCCGUUGAAUGGAGUUUAUCAUG: -0.908. As to GGAUAUUCUCGAUCUAACAAAAAAGACAAAUCUGCCACUAAGCUUGAGAGCAUCUUCGGAUGCAGAGGCGGCAGCCUUCGGUGGUGCGAGAGCGCCAACGUUCUCAACUAUGACACGUAAAACGUGUGCUCCGUUGAAUGGAGUUUAUCAUG, the “polymerase ribozyme fitness (log ratio)” value was at most -4.2. On to GGAUAUUCUCGAUCUAACAAAAAAGACAAAUCUGCCACAAAGCUUGAGAGCCUCUUCGGAUGCAGAGGCGGCUGCCUUCGGCGGUGCGAUAGCGCCAACGUUCUCAACUAUGACACGCAAAACGCGUGCUCCGUUUAAUGGAGUUUAUCAUG, for which the “polymerase ribozyme fitness (log ratio)” value is at most -4.2. For GGAUAUUUGCGAUCUAACAAAAAAGACAAAUCUGCCACAAAGCUUGAGAGUAUCUUCGGAUGCAGAGGCGGCAGCCUUCGGUGGUGCGAUAGCGCCAACGUUCUCUCCUAUGACACGAAAAACGCGUGCUCCGUUGAAUGGAGUUUAUCAUG the value was at most -4.2. With GGAUAUUCUCGAUCUAACAAAAAAGACAAAUCUGCCACAAAGCUUGAGAGCAUCUUCGGAUGCAGAGGCGGCAGCCUUCGGUGGUGCGAUAGCGGCAACGUUCUCAACUAUGACACGCAAAACGCGUGCUCCGUUGAAUGGAGUUUAUCAUG, the “polymerase ribozyme fitness (log ratio)” value was -1.93.

On to GGAUAUUCUCGAUCUAACAAAAACGACAAAUCUGCCACAAAGCUUGAGAGCAUCUUCGGAUGCAGAGGCGGCAGCCUUCCGUGGCGCGAUAGCGCCAACGUUCUCAACUAUGACACGCAAAACGCGUGCUCCGUUGAAUGGAGUUUAUGAUG, for which the “polymerase ribozyme fitness (log ratio)” value is at most -4.2. GGAUAUUCUCGAUCUAACAAUAAAGACAAAUCUGCCACAAAGCUUGAGAGCAUCUUCGGAUGCAGAGGCGGCAGCCAUCGGGGGCGCGAUAGCGCGAACGUUCGAAACUAUGACACGUAAAACGCGUGCUCCGUUGAACGGAGUUUAUCAUG: the “polymerase ribozyme fitness (log ratio)” value was at most -4.2. The same measure for GGAUAUUCUCGAUCUAACACAAAAGACAAAUCUGCCACAAGGCUUGAGAGCAUCUUCGGAUGCAGAGGCGGCAGCCUUCGGUGGCGCGAUAGAGCCAACGUUCUCAACUAUGACACGCAAAACGCGUGCUCCGUUGAAUGGAGUUUCUCAUG: -1.66; for GGAUAUUCUCGAUCUAACAAAAAAGACAAAUCUGCCACAAAGCUUGAGAGCAUCUUCGGAUGCAGAGGCGGCAGCUUUCGGUGGCGCGAUAGAGCCAACGUUCUCAACUAUGACACGCAAAACGCGUGCUCCGUUGAAUGGAGUUUAUCAUG: -1.5.

Regarding GGAUAUUCUCGAUCUAACAAAAAAGACACAUCUGCCACAAAGCUUGAGAUUAUCUUCGGAUGCAGAGGCGGCAGCCUUCGGUGGCGCAACAGCGCCAACGUUCUCAACUAUGACACGCAAAACGCGUGCUCCGUUGAAUGGAGUUUAUCAUG, the “polymerase ribozyme fitness (log ratio)” value was at most -4.2.
